Source: US20210253725A1 (BIONTECH, published 2021)

T1: CD134 protein (His-tagged, Sino Biological Inc. 10481-H08H) (human, UniProt P43489 29-216)
T1 construct: bought protein coated on ELISA plates; also called OX40; TNFRSF4; not shown: His tag
T1 sequence (looked up): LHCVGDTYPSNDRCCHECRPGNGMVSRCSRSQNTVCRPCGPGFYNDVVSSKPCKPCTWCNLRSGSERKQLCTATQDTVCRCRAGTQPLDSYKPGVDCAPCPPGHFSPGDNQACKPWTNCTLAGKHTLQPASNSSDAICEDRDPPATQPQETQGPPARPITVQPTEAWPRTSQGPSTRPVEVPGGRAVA

T2: CD134 expressed on the cell surface of HT1080_OX40 cells (human, UniProt P43489 29-277)
T2 construct: whole, on cells; species not restated for the HT1080 transfectant
T2 sequence (looked up): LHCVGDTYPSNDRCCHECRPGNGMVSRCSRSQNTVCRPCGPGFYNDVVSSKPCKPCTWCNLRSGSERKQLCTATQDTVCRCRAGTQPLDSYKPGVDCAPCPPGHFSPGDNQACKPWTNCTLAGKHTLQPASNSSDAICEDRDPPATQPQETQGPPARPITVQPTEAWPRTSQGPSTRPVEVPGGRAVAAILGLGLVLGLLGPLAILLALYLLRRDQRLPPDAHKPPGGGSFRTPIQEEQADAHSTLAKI

B1: P018.S.12.A.C04 (antibody, V domains shown)
VH: QSLEESGGRLVTPGGSLTLTCTVSGIDLSRWTMSWVRQAPGKGLEWIGLIYASDDTVYASWAKGRFTISKTSTTVDLKITSPTTEDTATYFCVRVYGSTSGYYDLWGQGTLVTVSS
VL: DVVMTQTPASVSEPVGGTVTIKCQASQSISNWLAWYQQKPGQPPKLLIYYASTLASGVPSRFKGSGSGTQFTLTISDLESADAATYYCQNFGDGNSIGHAFGGGTEVVVK
notes: V regions on human Ig constant parts; also called AB134_64
B2: P018.S.11.A.H02 (antibody, V domains shown)
VH: QSVEESGGRLVTPGTPLTLTCTVSGFSLSNYAMSWVRQAPGKGLEWIGIISPSGNTYYANWAKGRFTISKTSTTVDLKITSPTTEDTATYFCAREGALYDDYGDYVDAFDPWGPGTLVTVSS
VL: AAVLTQTPSPVSAAVGGTVSISCQSSESVYNNNWLSWYQQKPGQPPKLLIYRASTLASGVPSRFKGSGSGTQFTLTISDVQSDDAATYYCAGGYSSSSDINAFGGGTEVVVK
notes: V regions on human Ig constant parts; also called AB134_46
B3: P018.S.12.A.D02 (antibody, V domains shown)
VH: QSVEESGGRLVTPGTPLTLTCTVSGFSLRHYAMSWVRQAPGKGLEWIGVITTTANTYYASWAKGRFTVSKASSTTVDLKIMSPTIEDTATYFCARAMGLYDSYVDVDDTHDAFDPWGPGTLVTVSS
VL: AQVLTQTASPVSAAVGGTVTINCQSSQSVYNSHVLSWYQQKPGQPPKLLIYDASNLASGVPSRFSASGSGTQFTLTISGVQSDDAATYYCLGGYDDDADNIFAFGGGTEVVVA
notes: V regions on human Ig constant parts; also called AB134_67
B4: P018.S.11.A.B05 (antibody, V domains shown)
VH: QSVEESGGRLVTPGTPLTLTCTVSGFSLSTYNVAWVRQAPGKGLQYIGIMAFDGNTYYASWATGRFTISRTSTTVNLKITSPTTEDTATYFCCKGDPSSDTGTTLWGQGTLVTVSS
VL: AAVLTQTPSSASEPVGGTVTIKCQSSPSVYSNNWLAWFQQKPGQRPKLLIYAAAKLASGVPSRFRGSGSGTQFTLTISDVQSDDAATYYCAGGFNSDSDTTFGGGTEVVVK
notes: V regions on human Ig constant parts; also called AB134_26
B5: P018.S.12.A.G02 (antibody, V domains shown)
VH: QSLEESGGRLVTPGTPLTLTCTASGFSLNMFYMIWVRQAPGKGLEWIGMIDSMGSAWYASWAKGRFTISKTSTAVALKITSPTTEDTATYFCARAINGDGAGDLWGQGTLVTVSS
VL: DVVMTQTPASVSAAVGGTVTINCRASEKIDSFLAWYQQKPGQPPKLLIYGASELAPGVPSRFSGSGSGTDYTLTISALESADAATYYCQSTADGSDYVGTFGGGTEVVVK
notes: V regions on human Ig constant parts; also called AB134_84
B6: P018.S.11.A.E03 (antibody, V domains shown)
VH: QSVEESGGRLVTPGTPLTLTCTVSGFSLSSYAVSWVRQAPWKGLEWIGIISSGGNTYYASWATGRFTISKTSTTVDLKITSPTTEDTATYFCARGIHSYDDYLGYKLWGPGTLVTVSS
VL: AIEMTQSPPSLSASVGETVRIRCLASEFLFNAVSWYQQKPEKPPTLLISGASNLESGVPPRFSGSGSGTDYTLTIGGVQAEDVAAYYCLGGYKRADLTFGPGTKVEIK
notes: V regions on human Ig constant parts; also called AB134_34
B7: P018.S.12.A.H01 (antibody, V domains shown)
VH: QSVEESGGRLVTPGTPLTLTCTVSGFSLSSYAMSWVRQAPGKGLEWIGDINSYATTYYASWAKGRFTISKTSTTVDLKLTSPTTEDTATYFCAREAGYADLWGQGTLVTVSS
VL: AYDMTQTPASVEVAVGGTVTIKCQASQSISRYLSWYQQEPGQRPKLLIYEASTLASGVSSRFKGSGSGTQFTLTISGVESADAATYYCQQDYDSTDVGNTFGGGTEVVVK
notes: V regions on human Ig constant parts; also called AB134_88

The binders below were run against T1, CD134 protein (His-tagged, Sino …) (assay: ELISA, coated His-tagged CD134).
Also: test concentration or dose not given here.

| ELISA [abs. corr.] | Binder |
| --- | --- |
| 2.04 | B1 |
| 2.8 | B2 |
| 2.64 | B3 |
| 1.65 | B4 |
| 2.33 | B5 |
| 0.276 | B6 |
| 1.89 | B7 |

These binders were tested against T2, CD134 expressed on the cell surface of … (assay: HT1080_OX40 cells, imaging).

| Cellular binding assay [RFU] | Binder |
| --- | --- |
| 509 | B1 |
| 515 | B2 |
| 472 | B3 |
| 456 | B4 |
| 530 | B5 |
| 318 | B6 |
| 523 | B7 |

These binders were tested against T2, CD134 expressed on the cell surface of … (assay: cell-based or functional assay).

| Functional assay Cross-linked by F(ab′)2 fragment IL-8 [abs. corr.] | Functional assay IL-8 [abs. corr.] | Binder |
| --- | --- | --- |
| 1.83 | 0.215 | B1 |
| 1.8 | 0.783 | B2 |
| 1.77 | 0.333 | B3 |
| 1.83 | 1.36 | B4 |
| 1.81 | 0.212 | B5 |
| 1.79 | 0.481 | B6 |
| 1.83 | 0.43 | B7 |
